Reference: publication PMC7835349 (Communications Biology, 2021)
Values joined by “and” are separate entries in the source; they are usually repeats but may differ in a detail not shown here. Identical values can stand only once.

Experiments:
OCI-LY10 xenograft = OCI-LY10 xenograft efficacy and survival; format: in vivo, C.B-17 SCID mouse; parameters: OCI-LY10 xenograft efficacy, individual animals: unit not given here; settings: for OCI-LY10 xenograft efficacy, individual animals: AZD0466 103 mg/kg (30mg/kg AZD4320)
Experimental: Female C.B.−17 SCID mice were purchased from Charles River Laboratories. Mice were 5–8 weeks old at the time of tumour implantation. All xenograft studies were conducted at our Association for the Assessment and Accreditation of Laboratory Animal Care accredited facility in Waltham, MA in accordance with ethical regulations described in the guidelines established by the internal Institutional Animal Care and Use Committee. The dendrimer conjugates were formulated in citrate/phosphate buffer pH 5.0, diluted 1:10 with 5% glucose containing 1% w/v Kolliphor HS15, and AZD4320 was formulated in 30% HP-β-CD and dosed as a weekly intravenous (IV) administration at a volume of 5 ml/kg at the indicated doses. Five million RS4;11, five million SUDHL-4 or five million OCI-LY-10 cells were injected subcutaneously in the right flank of mice in a volume of 0.1 ml. Tumour volumes (measured by caliper), animal body weight, and tumor condition were recorded twice weekly for the duration of the study. The tumour volume was calculated (taking length to be the longest diameter across the tumour and width to be the corresponding perpendicular diameter) using the formula: length (mm) x width (mm)^2/0.52. For efficacy studies, mice were randomized based on tumour volumes using stratified sampling and enrolled into control and treatment groups. Tumour growth inhibition from the start of treatment was quantified by measuring the difference in tumour volume between control and treated groups. Survival analysis was evaluated using Mantel-Cox test. Tumours were also taken for bioanalysis.

[1] = In vitro release of AZD4320 from dendrimer conjugates in PBS pH 7.4, 37 °C; settings: for Cummulative Release % / Mean % Released: PBS 37 °C
Experimental: In vitro release half-life was calculated by least squares fitting to a 1st order release model.
AZD4320 release kinetics were determined in vitro under physiological conditions.
Nanoparticles were suspended in phosphate buffered saline (PBS) pH7.4 or rat plasma with 5%
HEPES in HPLC vials and sample temperature maintained to 37 °C using a water bath with
continuous stirring of the sample provided by iChem explorer unit. Periodically, 5-10 µL of
sample was injected onto the column (Acquity UPLC BEH shield RP18 1.7 µm, 4.6 x 30 mm,
Waters), bracketed by DMA to re-dissolve any precipitated AZD4320. The percent release was
calculated by comparing unconjugated AZD4320 peak area to total unconjugated + dendrimer-
conjugated AZD4320 peak areas. The half-life was calculated by least squares fitting to a 1st

AZD4320-MIDA-PEG2100 [AZD0466]
OCI-LY10 xenograft efficacy, individual animals (OCI-LY10 xenograft; day 18): 193 and 170 and 155 and 173 and 235 and 111 and 163 and 131
OCI-LY10 xenograft efficacy, individual animals (OCI-LY10 xenograft; day 21): 363 and 334 and 195 and 394 and 490 and 191 and 262 and 142
OCI-LY10 xenograft efficacy, individual animals (OCI-LY10 xenograft; day 25): 214 and 151 and 62 and 129 and 351 and 181 and 222 and 188
OCI-LY10 xenograft efficacy, individual animals (OCI-LY10 xenograft; day 28): 475 and 406 and 118 and 241 and 485 and 190 and 184 and 194
OCI-LY10 xenograft efficacy, individual animals (OCI-LY10 xenograft; day 32): 410 and 443 and 252 and 338 and 536 and 215 and 401 and 301
OCI-LY10 xenograft efficacy, individual animals (OCI-LY10 xenograft; day 35): 664 and 595 and 309 and 391 and 667 and 265 and 496 and 262
OCI-LY10 xenograft efficacy, individual animals (OCI-LY10 xenograft; day 39): 653 and 578 and 346 and 432 and 638 and 281 and 354 and 330
OCI-LY10 xenograft efficacy, individual animals (OCI-LY10 xenograft; day 42): 773 and 918 and 408 and 717 and 707 and 404 and 319 and 272
mice with complete regressions (OCI-LY10 xenograft; OCI-LY10, AZD0466 in combination with acalabrutinib): 8/8
monotherapy activity (OCI-LY10 xenograft; OCI-LY10 DLBCL model): neither agent showed any demonstrable monotherapy activity
Cummulative Release % ([1]; 0.75 h, Replicate 1): 2.01%
Cummulative Release % ([1]; 0.90 h, Replicate 2): 2.72%
Cummulative Release % ([1]; 1.05 h, Replicate 3): 2.87%
Cummulative Release % ([1]; 1.67 h, Replicate 1): 3.95%
Cummulative Release % ([1]; 1.82 h, Replicate 2): 4.63%
Cummulative Release % ([1]; 1.97 h, Replicate 3): 5.12%
Cummulative Release % ([1]; 2.60 h, Replicate 1): 6.37%
Cummulative Release % ([1]; 2.75 h, Replicate 2): 7.07%
Cummulative Release % ([1]; 2.90 h, Replicate 3): 7.57%
Cummulative Release % ([1]; 3.52 h, Replicate 1): 8.48%
Cummulative Release % ([1]; 3.67 h, Replicate 2): 9.50%
Cummulative Release % ([1]; 3.83 h, Replicate 3): 9.95%
Cummulative Release % ([1]; 4.45 h, Replicate 1): 10.66%
Cummulative Release % ([1]; 4.60 h, Replicate 2): 11.87%
Cummulative Release % ([1]; 4.75 h, Replicate 3): 12.24%
Cummulative Release % ([1]; 5.37 h, Replicate 1): 12.82%
Cummulative Release % ([1]; 5.52 h, Replicate 2): 13.72%
Cummulative Release % ([1]; 5.68 h, Replicate 3): 14.33%
Cummulative Release % ([1]; 6.30 h, Replicate 1): 15.04%
Cummulative Release % ([1]; 6.45 h, Replicate 2): 16.29%
Cummulative Release % ([1]; 6.60 h, Replicate 3): 15.86%
Cummulative Release % ([1]; 7.22 h, Replicate 1): 15.94%
Cummulative Release % ([1]; 7.37 h, Replicate 2): 17.47%
Cummulative Release % ([1]; 7.53 h, Replicate 3): 17.99%
Cummulative Release % ([1]; 8.15 h, Replicate 1): 18.09%
Cummulative Release % ([1]; 8.30 h, Replicate 2): 19.34%
Cummulative Release % ([1]; 8.45 h, Replicate 3): 19.77%
Cummulative Release % ([1]; 9.07 h, Replicate 1): 20.00%
Cummulative Release % ([1]; 9.23 h, Replicate 2): 21.33%
Cummulative Release % ([1]; 9.38 h, Replicate 3): 21.63%
Cummulative Release % ([1]; 10.00 h, Replicate 1): 22.23%
Cummulative Release % ([1]; 10.15 h, Replicate 2): 23.21%
Cummulative Release % ([1]; 10.30 h, Replicate 3): 23.50%
Cummulative Release % ([1]; 10.92 h, Replicate 1): 23.70%
Cummulative Release % ([1]; 11.08 h, Replicate 2): 25.81%
Cummulative Release % ([1]; 11.23 h, Replicate 3): 25.99%
Cummulative Release % ([1]; 11.85 h, Replicate 1): 25.62%
Cummulative Release % ([1]; 12.00 h, Replicate 2): 26.79%
Cummulative Release % ([1]; 12.15 h, Replicate 3): 27.44%
Cummulative Release % ([1]; 12.77 h, Replicate 1): 27.74%
Cummulative Release % ([1]; 12.93 h, Replicate 2): 29.41%
Cummulative Release % ([1]; 13.08 h, Replicate 3): 29.66%
Cummulative Release % ([1]; 13.70 h, Replicate 1): 29.02%
Cummulative Release % ([1]; 13.85 h, Replicate 2): 30.77%
Cummulative Release % ([1]; 14.00 h, Replicate 3): 31.43%
Cummulative Release % ([1]; 14.63 h, Replicate 1): 30.82%
Cummulative Release % ([1]; 14.78 h, Replicate 2): 32.39%
Cummulative Release % ([1]; 14.93 h, Replicate 3): 33.56%
Cummulative Release % ([1]; 15.55 h, Replicate 1): 32.52%
Cummulative Release % ([1]; 15.70 h, Replicate 2): 34.45%
Cummulative Release % ([1]; 15.85 h, Replicate 3): 35.54%
Cummulative Release % ([1]; 16.48 h, Replicate 1): 34.39%
Cummulative Release % ([1]; 16.63 h, Replicate 2): 35.86%
Cummulative Release % ([1]; 16.78 h, Replicate 3): 36.74%
Cummulative Release % ([1]; 17.40 h, Replicate 1): 35.32%
Cummulative Release % ([1]; 17.55 h, Replicate 2): 37.92%
Cummulative Release % ([1]; 17.71 h, Replicate 3): 39.37%
Cummulative Release % ([1]; 18.33 h, Replicate 1): 37.81%
Cummulative Release % ([1]; 18.48 h, Replicate 2): 39.44%
Cummulative Release % ([1]; 18.63 h, Replicate 3): 41.92%
Cummulative Release % ([1]; 19.25 h, Replicate 1): 40.42%
Cummulative Release % ([1]; 19.40 h, Replicate 2): 41.10%
Cummulative Release % ([1]; 19.56 h, Replicate 3): 42.30%
Cummulative Release % ([1]; 20.18 h, Replicate 1): 40.20%
Cummulative Release % ([1]; 20.33 h, Replicate 2): 43.40%
Cummulative Release % ([1]; 20.48 h, Replicate 3): 44.87%
Cummulative Release % ([1]; 21.10 h, Replicate 1): 42.52%
Cummulative Release % ([1]; 21.25 h, Replicate 2): 45.67%
Cummulative Release % ([1]; 21.41 h, Replicate 3): 46.38%
Cummulative Release % ([1]; 22.03 h, Replicate 1): 45.50%
Cummulative Release % ([1]; 22.18 h, Replicate 2): 47.56%
Cummulative Release % ([1]; 22.33 h, Replicate 3): 48.29%
Cummulative Release % ([1]; 22.95 h, Replicate 1): 46.44%
Cummulative Release % ([1]; 23.10 h, Replicate 2): 48.78%
Cummulative Release % ([1]; 23.88 h, Replicate 1): 47.76%
Cummulative Release % ([1]; 24.03 h, Replicate 2): 50.99%
Cummulative Release % ([1]; 24.80 h, Replicate 1): 50.26%
Cummulative Release % ([1]; 24.95 h, Replicate 2): 53.17%
Mean % Released ([1]; mean time 0.90 h): 2.53%
Mean % Released ([1]; mean time 1.82 h): 4.57%
Mean % Released ([1]; mean time 2.75 h): 7.00%
Mean % Released ([1]; mean time 3.67 h): 9.31%
Mean % Released ([1]; mean time 4.60 h): 11.59%
Mean % Released ([1]; mean time 5.52 h): 13.62%
Mean % Released ([1]; mean time 6.45 h): 15.73%
Mean % Released ([1]; mean time 7.37 h): 17.14%
Mean % Released ([1]; mean time 8.30 h): 19.07%
Mean % Released ([1]; mean time 9.23 h): 20.98%
Mean % Released ([1]; mean time 10.15 h): 22.98%
Mean % Released ([1]; mean time 11.08 h): 25.17%
Mean % Released ([1]; mean time 12.00 h): 26.61%
Mean % Released ([1]; mean time 12.93 h): 28.93%
Mean % Released ([1]; mean time 13.85 h): 30.40%
Mean % Released ([1]; mean time 14.78 h): 32.26%
Mean % Released ([1]; mean time 15.70 h): 34.17%
Mean % Released ([1]; mean time 16.63 h): 35.66%
Mean % Released ([1]; mean time 17.55 h): 37.54%
Mean % Released ([1]; mean time 18.48 h): 39.72%
Mean % Released ([1]; mean time 19.40 h): 41.27%
Mean % Released ([1]; mean time 20.33 h): 42.83%
Mean % Released ([1]; mean time 21.25 h): 44.86%
Mean % Released ([1]; mean time 22.18 h): 47.12%
Mean % Released ([1]; mean time 23.03 h): 47.61%
Mean % Released ([1]; mean time 23.95 h): 49.38%
Mean % Released ([1]; mean time 24.88 h): 51.72%
In vitro release half-life (t1/2) of AZD4320 ([1]; PBS pH 7.4, 37 °C, first order fit): 25.5 h
